Assay results reported in patent US20070160658A1, “Delivery system for diagnostic and therapeutic agents” (The Penn State Research Foundation, priority 2005, published 2007).

Target: T1, IL-13Rα2 (Homo sapiens, UniProt Q14627)
T1 sequence (Q14627 27-380): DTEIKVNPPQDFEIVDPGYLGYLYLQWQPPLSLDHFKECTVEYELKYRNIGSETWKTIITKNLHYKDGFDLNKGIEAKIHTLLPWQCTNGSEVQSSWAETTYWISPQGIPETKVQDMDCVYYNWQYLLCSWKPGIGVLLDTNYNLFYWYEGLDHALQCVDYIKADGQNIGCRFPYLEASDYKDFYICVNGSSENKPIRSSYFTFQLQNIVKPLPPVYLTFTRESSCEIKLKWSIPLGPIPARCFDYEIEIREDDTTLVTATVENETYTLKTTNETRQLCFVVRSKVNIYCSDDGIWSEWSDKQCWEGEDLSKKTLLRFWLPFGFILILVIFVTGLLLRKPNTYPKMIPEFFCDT
Assay: titered cytotoxicity neutralization assay against IL13-PE38QQR cytotoxin
Format: cell-based
Details: protein 100 ng/ml; cytotoxin IL13-PE38QQR fixed at 10 ng/ml
Experimental: Additionally, position K105 of this region of IL-13 is mutated into a variety of amino acids and the mutants' cytotoxic neutralization potential and binding affinity towards IL-13Rα2 is determined. […] In this titered cytotoxicity neutralization experiment, higher neutralization efficiency against the IL13-PE38QQR cytotoxin, for the mutant IL13.K105R is observed (Madhankumar A. B., Mintz, A., and Debinski, W. (2004) Neoplasia (New York) 6, 15-22). IL13.K105R is able to neutralize the cytotoxicity to 99% at 100 ng/ml concentration when compared with its blocking efficiency at 1000 ng/ml concentration. However, the wild type IL-13 and the mutant IL13.K106R and IL13.R109K have only 86.5%, 86.7% and 80.7% of the cytotoxicity neutralization efficiency with respect to their neutralization efficiency at 1000 ng/ml concentration. […] The high affinity mutant IL13.K105R is used as a ligand to conjugate to liposomes in order to better target the glioma associated IL-13Rα2 receptor.

Substance	cytotoxicity neutralization efficiency with respect to neutralization efficiency at 1000 ng/ml [%]
wild type IL-13: human cytokine interleukin-13, wild type	86.5
IL13.K106R: mutant of IL-13 at position 106	86.7
